According to the Human Domainome abundance scans (Beltran et al. 2025):

B1: Retinoic acid receptor beta, residues 85 to 161; numbered along this chain, P10826 (parent)
chain: YKPCFVCQDKSSGYHYGVSACEGCKGFFRRSIQKNMIYTCHRDKNCVINKVTRNRCQYCRLQKCFEVGMSKESVRND

Variants of: B1
Test: abundance fitness (aPCA) (normalised: wild type 0, dead -1); higher = more abundant; growth selection in yeast, the domain comes from the species named
Conditions: Homo sapiens

Abundance fitness, by site and new letter:
K44: Y -0.321; R 0; V -0.356; A -0.004; M 0.032; H -0.322; L -0.059; T -0.043; W -0.208; D -0.059; Q 0.166; C -0.113; F -0.283; I -0.009; P -0.599; S 0.056; G 0.035; E -0.015
D43: G 0.012; E 0.07; S -0.034; W -0.169; Q -0.019; A 0.026; Y -0.103; N -0.072; R -0.024; F -0.014; I -0.038; T 0.007; K -0.001; H -0.32; C -0.436; M -0.076; L -0.066; V -0.103; P -0.471
F28: Q -0.807; C -0.895; M -0.47; V -0.688; H -0.338; T -0.604; W -0.123; Y -0.439; P -1.06; E -0.983; K -0.9; A -0.534; G -0.82; I -0.453; N -0.847; L -0.588
N35: T 0.039; V -0.184; L -0.235; F -0.215; G 0.077; R -0.018; H -0.373; D 0.128; M -0.149; C 0.024; Q 0.087; E 0.159; W -0.45; P -0.312; K 0.186; S 0.035; I -0.684; A 0.037
G26: N 0.246; S -0.254; K -0.49; R -0.481; T -0.024; W -0.862; L -0.265; Y -0.467; V -0.121; I -0.078; M -0.396; H -0.109; Q -0.11
Q33: S -0.014; A 0.105; M 0.136; P -0.773; F -0.148; L 0.078; E -0.017; H -0.175; I 0.028; G -0.044; W -0.097; T -0.15; V 0.045; K -0.016; Y -0.328; R -0.037; C -0.225; D 0.016; N 0.066
F27: L -0.886; G -0.715; P -0.888; S -0.773; C -0.703; D -0.698; E -0.822; A -0.748; I -0.724; M -0.454; Q -0.97; Y -0.57
R30: C -0.694; T -0.707; L -1.02; E 0.142; W -0.647; H -0.172; A -0.935; K 0.152; G -0.702; Q -0.311; S -0.644; D 0.234; V -1.02
N45: S -0.057; L 0.02; D -0.151; E 0.049; R 0.059; F -0.251; A 0.068; H -0.021; W -0.302; G -0.044; I 0.054; V 0.039; K 0.053; Y -0.477; P -0.025; C 0.02; M -0.035; Q 0.078
H41: D 0.051; P -0.044; Q 0.029; S -0.089; A -0.006; I -0.064; E 0.131; N -0.121; T 0.129; R -0.101; C -0.157; K -0.103; Y -0.178; G -0.024; W 0.016; L -0.077; M 0.081
I37: T -0.098; N 0.043; L -0.053; V 0.032; S -0.085; H -0.161; P -0.118; K 0.13; C -0.204; Y -0.345; D 0.048; E 0.046; Q 0.1; W -0.119; R -0.009; G -0.152
R42: K 0.067; T -0.016; S 0.014; I -0.114; A 0.203; H -0.412; Q 0.121; M 0.228; C 0.145; N 0.115; P -1.01; Y 0.033; D -0.047; W 0.15; V 0.177; E 0.07
R29: N 0.145; Y -0.339; A 0.072; I 0.069; V 0.084; T 0.211; D -0.079; E 0.167; L 0.026; H 0.162; W 0.011; K -0.092; S 0.098; Q 0.091; P -0.77
C40: N -0.999; I -0.667; G -0.817; Y -0.642; L -0.555; T -0.539; A -0.901; E -0.831; S -0.885; M -0.568; W -0.594; K -0.848; P -0.703; D -0.825; R -0.883; V -0.867; F -0.775
C46: E -0.474; D -0.352; Q -1.01; H -0.475; I -0.711; L -0.668; P -0.94; N -0.704; F -0.988; K -1; G -0.123
Y38: T -0.173; E -0.472; A -0.59; P -0.26; H -0.414; M -0.466; N -0.28; F -0.187; G -0.523; D -0.997; Q -0.739; W -0.282; S -0.417; R -0.499; C -0.899
K34: G 0.078; C -0.05; R -0.122; N 0.089; V -0.145; Y -0.007; P -0.084; D 0.33; T -0.06; I -0.371; H -0.146; E 0.169; A 0.003; W 0.05; L 0.074; F 0.014; M 0.104
M36: Q 0.089; R -0.064; S -0.002; C 0.15; W -0.127; I -0.239; T 0.051; G -0.141; L 0.053; N 0.009; V 0.072; A 0.132; P -0.216; H -0.025; F -0.4; K 0.01; E 0.124
S31: A -0.121; G -0.774; M -0.486; T 0.148; V -0.341; E -0.505; I -0.413; Y -0.51; W -0.09; N -0.508; P -0.611; C -0.12; L -0.6; R -0.559
I32: V 0.055; P -1.09; D -0.312; Y -0.056; W -0.432; A -0.156; R -0.648; S -0.487; C -0.176; Q -0.261; L -0.08; M -0.105; G -0.521; N -0.059; K -0.45; F -0.633
T39: R -0.01; E -0.025; L 0.059; S -0.01; Q 0.076; P -0.327; D 0.078; H 0.029; Y -0.009; F 0.105; C -0.047; K 0.056; W -0.097; N 0.003; A -0.017; M 0.061; G -0.156
